According to patent publication US11440969B2, “Use of human epididymis protein 4 (HE4) for assessing responsiveness of MUC 16-positive cancer treatment” (Genentech, Inc., priority 2016, dated 2022):
Values joined by “and” are separate entries in the source; they are usually repeats but may differ in a detail not shown here. Equal entries are not always repeated.

What was measured:
[1] = DMUC5754A pharmacokinetics in patients (total antibody ELISA; acMMAE and unconjugated MMAE LC/MS/MS); assay type: in vivo, human
Source text: Pharmacokinetics (PK) of DMUC5754A was characterized following q3w or qlw dosing schedules in both OC and PC patients. Serum or plasma samples at multiple pre-specified time points were quantified for three analytes (unconjugated MMAE, DMUC5754A total antibody, and DMUC5754A conjugate (measured as antibody-conjugated MMAE, acMMAE)). Total antibody (antibody with MMAE-to-antibody ratio equal or greater than zero, including conjugated, partially deconjugated and fully deconjugated antibody) were analyzed using validated enzyme-linked immunosorbent assay methods with the minimum quantifiable concentration of 60 ng/mL. Plasma acMMAE and unconjugated MMAE were determined by using validated LC/MS/MS assays. The lower limit of quantitation (LLOQ) for the acMMAE assay and unconjugated MMAE were 0.359 ng/mL and 0.0359 ng/mL in human plasma, respectively. PK data after Cycle 1, Day 1 dose of DMUC5754A were analyzed with non-compartmental analysis using Phoenix WinNonlin 6.2 (Certara, L. P.), and further evaluated based on dose regimen and cancer type.

[2] = Serum anti-therapeutic antibody (ATA) bridging antibody ELISA; assay type: in vivo, human; details: patients; minimal impact on the exposure
Protocol: Serum anti-therapeutic antibody (ATA) samples were collected from all treated patients and were analyzed using a validated bridging antibody ELISA. Positive antibody responses were further characterized by competitive binding to determine if the response was primarily directed against the antibody or the linker-drug portion of the ADC.

[3] = Cycle 1, 2.4 mg/kg q3w, OC (n = 29), Mean [SD]
[4] = Cycle 1, 2.4 mg/kg q3w, PC (n = 10), Mean [SD]
[5] = q1w 1st dose, 0.8 mg/kg, OC, N 3
[6] = q1w 1st dose, 1.1 mg/kg, OC, N 7
[7] = q1w 1st dose, 1.4 mg/kg, OC, N 6
[8] = q1w 1st dose, 1.4 mg/kg, PC, N 1
[9] = q1w 1st dose, 1.6 mg/kg, OC, N 4
[10] = q3w 1st cycle, 0.3 mg/kg, OC, N 3
[11] = q3w 1st cycle, 0.6 mg/kg, OC, N 3
[12] = q3w 1st cycle, 1.2 mg/kg, OC, N 3
[13] = q3w 1st cycle, 1.8 mg/kg, OC, N 3
[14] = q3w 1st cycle, 2.4 mg/kg, OC, N 29
[15] = q3w 1st cycle, 2.4 mg/kg, PC, N 10
[16] = q3w 1st cycle, 3.2 mg/kg, OC, N 3

B1: DMUC5754A: antibody-drug conjugate: humanized IgG1 anti-MUC16 monoclonal antibody and MMAE, linked through protease labile linker maleimidocaproyl-valine-citrulline-p-aminobenzyloxycarbonyl (conjugate, chains of the INN, looked up)
VH: EVQLVESGGGLVQPGGSLRLSCAASGYSITNDYAWNWVRQAPGKGLEWVGYISYSGYTTYNPSLKSRFTISRDTSKNTLYLQMNSLRAEDTAVYYCARWTSGLDYWGQGTLVTVSS
VL: DIQMTQSPSSLSASVGDRVTITCKASDLIHNWLAWYQQKPGKAPKLLIYGATSLETGVPSRFSGSGSGTDFTLTISSLQPEDFATYYCQQYWTTPFTFGQGTKVEIK
modifications: MMAE via mc-vc-PABC linker
acMMAE CL [1, 3]: 1.06 ± 0.35 mL/h/kg
acMMAE Vss [1, 3]: 82.1 ± 21.1 mL/kg
acMMAE t1/2 [1, 3]: 5.01 ± 1.45 days
acMMAE Vss [1, 4]: 94.6 [32.4] mL/kg
acMMAE t1/2 [1, 4]: 5.42 [1.91] day
systemic unconjugated MMAE exposure, fold less than acMMAE exposure ([1]; human, in vivo): approximately 100 fold
Total Antibody AUCinf [1, 5]: 33.2 µg·days/mL
Total Antibody Cmax [1, 5]: 13000 ng/mL
acMMAE AUCinf [1, 5]: 386 ng·days/mL
acMMAE Cmax [1, 5]: 227 ng/mL
Unconjugated MMAE Cmax ([1]; q1w 1st dose, 0.8 mg/kg, OC, n = 2): 1.24 ng/mL
Total Antibody AUCinf [1, 6]: 56.1 µg·days/mL
Total Antibody Cmax [1, 6]: 17700 ng/mL
Unconjugated MMAE Cmax [1, 6]: 3.23 ng/mL
acMMAE Cmax [1, 6]: 301 ng/mL
acMMAE AUCinf ([1]; q1w 1st dose, 1.1 mg/kg, OC, n = 6): 612 ng·days/mL
Total Antibody AUCinf [1, 7]: 73.0 µg·days/mL
Total Antibody Cmax [1, 7]: 23900 ng/mL
Unconjugated MMAE Cmax [1, 7]: 3.73 ng/mL
acMMAE Cmax [1, 7]: 449 ng/mL
acMMAE AUCinf ([1]; q1w 1st dose, 1.4 mg/kg, OC, n = 5): 813 ng·days/mL
Total Antibody AUCinf [1, 8]: 55.7 µg·days/mL
Total Antibody Cmax [1, 8]: 17300 ng/mL
Unconjugated MMAE Cmax [1, 8]: 7.59 ng/mL
acMMAE AUCinf [1, 8]: 542 ng·days/mL
acMMAE Cmax [1, 8]: 204 ng/mL
Total Antibody AUCinf [1, 9]: 82.3 µg·days/mL
Total Antibody Cmax [1, 9]: 29700 ng/mL
Unconjugated MMAE Cmax [1, 9]: 5.75 ng/mL
acMMAE AUCinf [1, 9]: 957 ng·days/mL
acMMAE Cmax [1, 9]: 539 ng/mL
Total Antibody Cmax [1, 10]: 6650 ng/mL
Unconjugated MMAE AUCinf [1, 10]: 4.33 ng·days/mL
Unconjugated MMAE Cmax [1, 10]: 0.675 ng/mL
acMMAE AUCinf [1, 10]: 135 ng·days/mL
acMMAE Cmax [1, 10]: 93.3 ng/mL
Total Antibody AUCinf ([1]; q3w 1st cycle, 0.3 mg/kg, OC, n = 2): 13.1 µg·days/mL
Total Antibody AUCinf [1, 11]: 29.5 µg·days/mL
Total Antibody Cmax [1, 11]: 16600 ng/mL
Unconjugated MMAE AUCinf [1, 11]: 10.3 ng·days/mL
Unconjugated MMAE Cmax [1, 11]: 2.03 ng/mL
acMMAE AUCinf [1, 11]: 310 ng·days/mL
acMMAE Cmax [1, 11]: 226 ng/mL
Total Antibody AUCinf [1, 12]: 81.8 µg·days/mL
Total Antibody Cmax [1, 12]: 22500 ng/mL
Unconjugated MMAE AUCinf [1, 12]: 19.2 ng·days/mL
Unconjugated MMAE Cmax [1, 12]: 2.84 ng/mL
acMMAE AUCinf [1, 12]: 715 ng·days/mL
acMMAE Cmax [1, 12]: 337 ng/mL
Total Antibody AUCinf [1, 13]: 106.0 µg·days/mL
Total Antibody Cmax [1, 13]: 35500 ng/mL
Unconjugated MMAE AUCinf [1, 13]: 33.1 ng·days/mL
Unconjugated MMAE Cmax [1, 13]: 4.7 ng/mL
acMMAE AUCinf [1, 13]: 1050 ng·days/mL
acMMAE Cmax [1, 13]: 618 ng/mL
Total Antibody AUCinf [1, 14]: 178.0 µg·days/mL
Total Antibody Cmax [1, 14]: 42200 ng/mL
Unconjugated MMAE Cmax [1, 14]: 6.77 ng/mL
acMMAE AUCinf [1, 14]: 1850 ng·days/mL
acMMAE Cmax [1, 14]: 860 ng/mL and 860 [216] ng/mL
Unconjugated MMAE AUCinf ([1]; q3w 1st cycle, 2.4 mg/kg, OC, n = 28): 55.5 ng·days/mL
Total Antibody AUCinf [1, 15]: 167.0 µg·days/mL
Total Antibody Cmax [1, 15]: 38900 ng/mL
Unconjugated MMAE AUCinf [1, 15]: 63.6 ng·days/mL
Unconjugated MMAE Cmax [1, 15]: 7.7 ng/mL
acMMAE AUCinf [1, 15]: 1680 ng·days/mL
acMMAE Cmax [1, 15]: 737 ng/mL and 737 [115] ng/mL
Total Antibody AUCinf [1, 16]: 324.0 µg·days/mL
Total Antibody Cmax [1, 16]: 71400 ng/mL
Unconjugated MMAE Cmax [1, 16]: 20 ng/mL
acMMAE AUCinf [1, 16]: 3380 ng·days/mL
acMMAE Cmax [1, 16]: 1220 ng/mL
Unconjugated MMAE AUCinf ([1]; q3w 1st cycle, 3.2 mg/kg, OC, n = 1): 111 ng·days/mL
increase of exposure of acMMAE or total antibody (Cmax or AUCinf, Cycle 1) with dose ([1]; q3w and q1w cohorts, 0.3-3.2 mg/kg, nonlinear PK): not dose proportional
immunogenicity rate [2]: 14.1%
